Laboratory results published in US20170281788A1.

Biological target: insulin receptor (IR-B) (UniProt P06213)
Experiment: cell-based or functional assay

Normalized IR-B EC50: 0.988 nM
Substance: CIU-033 (from UniProt P09681 52-93) (ligand; B1 amine-CH2CH2CH2-S-S-Cys of incretin; X=Aib)
